According to patent US20230002478A1 (published 2023):

Experiments:
SARS-CoV-2 S1 = SARS-CoV-2 S1 (SARS-CoV-2, UniProt P0DTC2 16-685); assay: SPR
SARS-CoV-2 S Trimer = SARS-CoV-2 S Trimer (SARS-CoV-2, UniProt P0DTC2 16-1213); assay: SPR

Binder	Kd (SARS-CoV-2 S1) [pM]	Kd (SARS-CoV-2 S Trimer) [pM]
antibody 202-03 (Fc fusion) EVQLVESGGGLVQPGGSLRLSCAASGFTFSPSWMGWFRQAPGKEREFVATINEYGGRNYADSVKGRFTISADNSKNTAYLQMNSLKPEDTAVYYCARVDRDFDYWGQGTLVTVSS	11	299
antibody 339-031 (Fc fusion) EVQLVESGGGLVQPGGSLRLSCAASGSTFSINAMGWFRQAPGKEREFVAGITSSGGYTNYADSVKGRFTISADNSKNTAYLQMNSLKPEDTAVYYCAADGVPEYSDYASGPVWGQGTLVTVSS	6	< 14
